Target: T1, BSA (UniProt P02769 25-607)
T1 construct: Negative control analyte on the Biacore chip; also called BSA negative control
Test: SPR (Biacore), rfhSP-A immobilised to ~700 RU, BSA as soluble analyte

T1 sequence (P02769 25-607 limits assumed): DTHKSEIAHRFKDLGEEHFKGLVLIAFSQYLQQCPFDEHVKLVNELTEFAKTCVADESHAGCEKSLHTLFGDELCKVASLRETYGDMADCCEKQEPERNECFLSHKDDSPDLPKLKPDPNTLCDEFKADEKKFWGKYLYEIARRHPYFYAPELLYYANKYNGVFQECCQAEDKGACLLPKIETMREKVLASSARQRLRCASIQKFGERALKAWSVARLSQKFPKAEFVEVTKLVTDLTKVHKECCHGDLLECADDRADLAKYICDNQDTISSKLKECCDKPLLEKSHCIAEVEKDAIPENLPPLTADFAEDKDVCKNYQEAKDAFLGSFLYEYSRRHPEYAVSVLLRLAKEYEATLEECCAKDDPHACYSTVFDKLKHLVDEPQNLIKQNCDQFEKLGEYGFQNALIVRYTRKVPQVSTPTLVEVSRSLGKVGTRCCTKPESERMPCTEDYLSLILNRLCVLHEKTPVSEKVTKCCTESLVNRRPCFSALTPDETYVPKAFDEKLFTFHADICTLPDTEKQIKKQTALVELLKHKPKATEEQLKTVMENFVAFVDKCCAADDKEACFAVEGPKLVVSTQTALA

B1: rfhSP-A (recombinant fragment of human surfactant protein A; truncated SP-A polypeptide) (other)
chain: not shown
notes: C-type lectin (collectin) fragment; also called rhfSP-A; trimeric rfhSP-A
B1: no binding.
